Test results taken from US9278138B2, “Peptide linkers for effective multivalent peptide binding” (E. I. DU PONT DE NEMOURS AND COMPANY, priority 2008, dated 2016).

B1: SDETGPQIPHRRPTWGPEPEPEPEPIPEPPKEAPVVIEKPKPKPKPKPKPPASDETGPQIPHRRPTW (peptide)
chain: SDETGPQIPHRRPTWGPEPEPEPEPIPEPPKEAPVVIEKPKPKPKPKPKPPASDETGPQIPHRRPTW
modifications: synethic cellulose acetate-binding construct
B2: MEA4-[(KP)6GG]2-MEA4: hair-binding domain, SEQ ID NO: 102 (peptide)
chain: PSHINKTNPHQGNHHSEKTQRQGPKPKPKPKPKPKPGGKPKPKPKPKPKPGGPAHINKTNPHQGNHHSEKTQRQGS
B3: HP2-(EEAAKK)4-MEA4: hair-binding domain, SEQ ID NO: 75 (peptide)
chain: PSAQSQLPDKHSGLHERAPQRYGPEEAAKKEEAAKKEEAAKKEEAAKKPAHINKTNPHQGNHHSEKTQRQGS

Assays:
[1] = Surface Plasmon Resonance binding to spin-coated cellulose acetate surface (Biacore X100); details: for peptide concentration at which binding response (net RU) started rising: net RU versus peptide concentration, FIG. 6
Experimental: Binding affinity of CA4 peptide and CA4 multimers were assessed by Surface Plasmon Resonance (SPR). The CA surface was prepared by spin-coating 0.75% CA solution in mixed cyclohexanone/methyl ethyl ketone (1/9 weight ratio) solvent at 2000 rpm for 1 minute twice on the Biacore bare gold sensor chip (Biacore Inc., Catalogue numberBR-1004-05; General Electric Corp., Fairfield, Conn.), followed by 80° C. annealing for 15 minutes. The CA resin used was CA-398-10 from Eastman Chemical Company (Kingsport, Tenn.), and the solution prepared was filtered with 0.2 μm PTFE membrane before use. The thickness of the spin-coated CA thin film was measured by Atomic Force Microscope (AFM) to be 26-30 nm.
Binding of each peptide to the CA surface was tested at various concentration ranges in Tris Buffered Saline (TBS, 25 mM Tris, 150 mM NaCl, pH 7.5), using Biacore X100 system. Each peptide solution sample was injected for 2 minutes at flow rate of 30 μL/minute followed by 10 minutes buffer wash. Surface regeneration and stabilization procedure was performed after each peptide solution injection as such: 90 seconds of 1% SLES (sodium laureth sulfate) solution injection and 90 seconds of 2 M NaCl solution injection at flow rate of 10 μL/minute, and 25 minutes stabilization in TBS. For the samples of each peptide at different concentrations, a new sensor chip flow cell was used.
Because a monolithic CA surface made from spin-coating on the whole sensor chip was used as ligand for peptides, no ligand-free reference cell was possible to have in these tests in order to take bulk response out as in conventional SPR protein assay using Biacore instruments. Bulk response refers to the SPR response to the refractive index difference between the sample solution and the running buffer, but not caused by sample binding to the surface. Bulk response completely disappears once sample injection is finished and buffer wash starts. So the response units (RU) remained right after injection was caused by binding and proportional to the mass of peptide bound to the surface, and was named as “net RU” in binding data. […] Typically, association and dissociation rate constant (ka and kd) can be obtained from binding kinetics curve fitting, and dissociation constant (KD). can be determined from the ratio of dissociation rate constant to association rate constant. The use of short linkers (3-6 amino acid residues) in CA4 dimer 1, CA4 dimer 2 and CA4 trimer gave 5 fold improvement on binding affinity compared to CA4 monomer. The use of long rigid linker (TonB linker) in CA4 dimer 4 gave 50 fold improvement on binding affinity compared to CA4 monomer. […] As control, the TonB linker peptide was tested in the same way.

[2] = Phage ELISA of phage binding to hair; design: species or system human; details: phage-displayed peptide, 1×10^11 pfu; A450; relative to HP2-TonB-Gray3 = 100
Experimental: (§1) Phage particles recovered from panning (Example 2) were used to infect E. coli 10GF′ and transformants were purified by colony isolation. Purified phagemid clones were infected with helper phage VCSM13 and phage particles were isolated. Those purified phage clones were assayed for binding to hair by two methods.
Gray hair (200 strands, 1.5 cm long per bundle were blocked with BSA (1 mg/mL) at room temperature (˜21° C.) for 30 min in 1.5 mL microfuge tubes, then washed 3 times with TBS. Phage particles (1×10^11 pfu) were added in TBS plus 0.1% TWEEN®-20 and incubated at room temperature for 1 hr with gentle shaking. The hair was then washed 5 times with TBS plus 0.5% TWEEN®-20. Hair with bound phage was incubated with HRP/Anti-M13 monoclonal conjugate (GE Healthcare Bio-Science Corp, Piscataway, N.J.) at room temperature (˜21° C.) for 1 hr with gentle shaking, then washed 6 times with TBS plus 0.5% TWEEN®-20. IMMUNOPURE® TMB substrate kit (High sensitivity, Pierce, Rockford, Ill.; a division of Thermo Scientific) was used for colorimetric assay. After 15˜20 min development with gentle shaking, the reaction was stopped, and absorbance was determined at 450 nm. The Phage titer and ELISA data were reported relative to the activity observed for the hair-binding domain HP2-TonB-Gray3. (Table 4).

[3] = Phage titer assay of phage binding to hair; design: species or system human; details: phage-displayed peptide; six gray hair strands; relative to HP2-TonB-Gray3 = 100
Experimental: as §1
Six gray hair strands (1.5 cm long) were blocked with BSA (1 mg/mL) at room temperature (˜21° C.) for 30 min in 1.5 mL microfuge tubes, then washed twice with tris buffered saline (TBS). Phage particles were added in TBS plus 0.1% TWEEN®-20 and incubated at room temperature for 1 hour with gentle shaking. The hair was then washed 3 times with TBS plus 0.5% TWEEN®-20, and centrifuged briefly to remove excess liquid. E. coli 10GF′ (1 mL; OD600nm=0.5) was added for 15 min. Aliquots were plated on selective plates and phagemid-containing colonies were counted (Table 4)

[4] = TBS pH 7.5, from binding kinetics curve fitting

Molecule	peptide concentration at which binding response (net RU) started rising [1] [µM]	ELISA (%) relative to the activity of HP2-TonB-Gray3 [2] [%]	Phage Titer (%) relative to the activity of HP2-TonB-Gray3 [3] [%]	further results
GPEPEPEPEPIPEPPKEAPWIEKPKPKPKPKPKPA [TonB linker, reference compound]	> 50			binding affinity to CA surface (in words) ([1]; SPR): no binding affinity; KD(M) from kinetics ([1]; TBS pH 7.5, ratio of kd to ka): undetectable
B1	5			ka [1, 4]: 441.5 M⁻¹ s⁻¹; kd [1, 4]: 0.00089 s⁻¹; Kd ([1]; TBS pH 7.5, ratio of kd to ka, read-out: KD(M) from kinetics): 2e-06 M; fold improvement on binding affinity compared to CA4 monomer ([1]; based on KD of Table 10): 50 fold
B2		1	1	
B3		170	80	
